Reference: patent US11291722B2, “Vaccine composition comprising cyclic peptides, antibodies to the cyclic peptides or an anticancer composition comprising the same” (Industry Academic Cooperation Foundation, Hallym University, priority 2016, dated 2022)
One block for each molecule: values may come before it.

Columns and labels:
TM4SF5 = biological target: T1, TM4SF5 (Homo sapiens, UniProt O14894); conditions: in vitro and in vivo; cited from earlier work
T1 sequence (O14894 1-197): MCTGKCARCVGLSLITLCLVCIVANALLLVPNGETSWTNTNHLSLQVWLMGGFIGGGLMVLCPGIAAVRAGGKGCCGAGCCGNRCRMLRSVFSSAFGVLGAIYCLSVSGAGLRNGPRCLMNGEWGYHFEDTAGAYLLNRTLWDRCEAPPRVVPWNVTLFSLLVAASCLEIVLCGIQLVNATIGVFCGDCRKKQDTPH

[1] = biological target: T2, Myc-tagged recombinant TM4SF5 protein (Homo sapiens, UniProt O14894); experiment: Western blot and immunoprecipitation on TM4SF5-overexpressing HEK 293F cells; type: binding; conditions: HEK 293F cells overexpressing TM4SF5 vs HEK 293F control
T2 construct: expressed in transfected cells
T2 sequence (O14894 1-197): T1 sequence (O14894 1-197)
Procedure: Human TM4SF5 cDNA was amplified by RT-PCR from Huh-7 mRNA using the following primer set: hTM4SF5 5′ primer, 5′-[…]-3′ (SEQ ID NO: 24), hTM4SF5 3′ primer, 5′-[…]-3′ (SEQ ID NO: 25). The cDNA fragment was cloned into the expression vector pcDNA-3.1/Myc-His(−)B (Invitrogen). HEK 293F cells (1×10^6 cells/ml) were transfected with 2.5 μg/ml hTM4SF5/pcDNA and 7.5 μg/ml polyethylenimine (PEI, Polysciences) for the production of stable cell lines expressing hTM4SF5, and the transfected cells were collected using 500 μg/ml G418 (Calbiochem) for 14 days. Expression of Myc-tagged hTM4SF5 was confirmed by Western blot analysis using anti-Myc-tag antibodies.
In order to analyze the specificity of anti-TM4SF5 monoclonal antibody and humanized anti-TM4SF5 antibody, TM4SF5-overexpressed cell lysates were separated on SDS-PAGE, and Western blot and immunoprecipitation assays were performed as described on Kwon S, Kim D, Rhee J W, Park J A, Kim D W, Kim D S, Lee Y, Kwon H J. BMC Biol. 2010; 8:23. In order to identify the expression of E-cadherin and β-catenin in humanized anti-TM4SF5 antibody-treated cells, cell lysates were analyzed with SDS-PAGE and Western blotting method as descried in Kwon S, Choi K C, Kim Y E, Ha Y W, Kim D, Park B K, Wu G, Kim D S, Lee Y, Kwon H J. Cancer Res. 2014; 74(14):3844-3856.

HT-29 cells = type: in vivo, BALB/cAnNCri-nu/nu mice; conditions: 25 mg/kg tail vein twice a week; compared to PBS control
Procedure: Mouse tumor models were established by implanting HT-29 cells into BALB/cAnNCri-nu/nu mice. PBS or anti-TM4SF5 monoclonal antibody was injected into the mice when the tumor size reaches 5 mm in diameter and the tumor growth was monitored for 31 days (n=6 each). (A) Experimental schedule. (B) Macroscopic appearance of colon cancer tissue. (C) Tumor volume (width^2×length/2). (D) Tumor weight. (E) Weight.
Twelve BALB/cAnNCri-nu/nu mice were subcutaneously injected with 5×10^6 HT-29 cells containing 50% matrigel (BD biosciences) on the dorsal right flank. When the tumor diameter reached 5 mm, the mice were randomly sorted into two treatment groups (6 mice/each group) of PBS and anti-TM4SF5 monoclonal antibody (mEC2-C). Antibodies (25 mg/kg) were injected into the tail vein twice a week. During 30 days after injecting the cancer cell, the tumor diameter was measured per 3 or 4 day-interval, and the tumor volume was calculated according to an equation Width^2×length/2. When the tumor size is reached ±600 mm^3, BACB/cAnNCri-NCri-nu/nu mice were sacrificed, and the tumor weight was measured.

[2] = biological target: T3, hTM4SF5EC2-C cyclic peptide (Homo sapiens, UniProt O14894, G133C); experiment: SPR (surface plasmon resonance) analysis; type: binding; conditions: 25° C.
T3 construct: purchased Peptron, Co., Ltd; host or cells: chemical synthesis
T3 sequence (O14894 with tags, fused parts or gaps G133C): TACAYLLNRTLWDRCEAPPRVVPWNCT
Procedure: FIG. 6 represents purification and characterization of mouse anti-TM4SF5 monoclonal antibodies recognizing TM4SF5 cyclic peptides. (A) Hydrops abdominis was producted from BALB/c mice by injecting i.p. into the abdominal cavity with hybridoma clone (2A10 clone) derived from FIG. 5. Anti-TM4SF5 monoclonal antibody was purified using protein-A agarose column chromatography and the purified antibody was identified by SDS-PAGE and Coomassie blue staining. (B) The isotype was determined by obtaining titration curves using purified monoclonal antibodies. (C) A binding affinity of monoclonal antibody for cyclic peptide hTM4SF5EC2-C was determined by using ELISA. (D) A binding affinity of monoclonal antibody for cyclic peptide […] was determined by using Reichert Analytical Instruments SPR 7500DC (Reichert). […] (E) HEK 293F-EV (empty vector) and proteins from HEK 293F-TM4SF5 cells were separated by SDS-PAGE and analyzed by Western Blot using anti-TM4SF5 monoclonal antibody (mEC2-C), anti-Myc antibody or anti-β-actin antibody. HEK 293F-EV and proteins of HEK 293F-TM4SF5 cell were immunoprecipitated with mEC2-C and analyzed by Western blot using anti-Myc antibody. […]
The affinities of anti-hTM4SF5 monoclonal antibody (mEC2-C) and humanized anti-TM4SF5 antibody (hEC2-C-2) binding to hTM4SF5EC2-C cyclic peptide were measured at 25° C. using the Reichert SPR system. […]

[3] = biological target: T4, hTM4SF5EC2-C cyclic peptide (Homo sapiens, UniProt O14894, G133C/V156C); experiment: ELISA binding of monoclonal antibody to cyclic peptide
T4 construct: purchased Peptron, Co., Ltd; host or cells: chemical synthesis
T4 sequence (O14894 131-157 G133C/V156C): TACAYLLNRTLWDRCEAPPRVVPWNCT
Procedure: Mice were sacrificed before and 10 days after each administration to obtain serum. To determine the total IgG titer and amount, a 96-well immunoplate (Nalgen Nunc International) was coated with 5 μg/ml hTM4SF5EC2-C cyclic peptide and blocked with 0.05% PBST containing 1% BSA for two hours. After removal of blocking solution, 100 μl of the culture supernatant was added and incubated for 2 hours at room temperature, then washed with PBST and incubated for 2 hours with the detection antibody such as horseradish peroxidase (HRP)-bound an anti-IgG antibody. Colorimetric assays were developed with TMB substrate solutions and absorbance was measured at 450 nm using a Spectra Max 250 microplate reader.

Molecule: Cc1ccc(S(=O)(=O)Nc2ccc(C(=O)/C=C/c3ccc(O)cc3)cc2)cc1 [TSAHC, 4′-(p-toluenesulfonyl-amido)-4-hydroxychalcone]
HCC growth and metastasis (TM4SF5): inhibited HCC growth and metastasis in vitro and in vivo

off rate (kd) [2]: 10^−5 /sec
binding to cyclic peptide hTM4SF5EC2-C by ELISA [3]: specific binding
B1: mEC2-C: mouse IgG3 anti-TM4SF5 monoclonal antibody from hybridoma clone 2A10, recognizing hTM4SF5EC2-C cyclic peptide (antibody, V domains shown)
VH: QVQLEESGPGLVAPSQSLSIICTVSGFSLTSYGVTWVRQPPGKGLEWLGVIWSDGSTNYQSALISRLTISRDNSKSQAFLKLNSLQTDDTATYYCARPSNYYYFDYWGQGTTLTVSS
VL: DIVMTQSPSSLAVSAGERVTLSCKSSQSLFDRRTRKTYLAWYQQKPGQSPKLLISWASTRESGVPDRFTGSGSGTDFTLTISSVQAEDLAVYYCKQSYNLFTFGGGTKLEIK
recognition of TM4SF5 protein by Western blot and immunoprecipitation [1]: recognize Myc-tagged recombinant TM4SF5 protein
progression of colon cancer (tumor volume and weight) (HT-29 cells): attenuated progression of colon cancer
